Reference: patent publication US11091546B2, “Optimized PNE-based chimeric receptor T cell switches and uses thereof” (The Scripps Research Institute, priority 2015, dated 2021)

System: U937 (CLL1+) cells
Test: Cytotoxicity assay, sCAR-T cells + anti-CLL1 switches
Assay type: cell-based
Conditions: with short-dimeric CAR
Description: FIG. 38A illustrates multiple fusion/grafting locations: A=LCNT1 (light chain N terminus version 1), B=HCNT3 (heavy chain N terminus version 3), C=heavy chain C terminus, and D=light chain C terminus). […] Data shown are an average of duplicate samples, and error bars represent SD. Only the NT switches plus the BvCT and By CH1CL1 as references are depicted.
By utilizing the “universal” anti-peptide sCART cell, multiple switches targeting multiple cancer associated antigens can be rapidly developed. An example of this is the generation of peptide engrafted switches against the AML associated antigen CLL1. A series of 6 plasmids were designed into which commercially synthesized gene-blocks encoding scFv sequences were inserted by gibson phase assembly to generate: Light chain wild type, light chain N-terminal, light chain C-terminal, heavy chain wild type, heavy chain N-terminal and heavy chain C-terminal plasmid constructs. […]
Another example (see Example 7) of switch SAR was shown with the anti-CLL1 switch derived from the anti-CLL1 antibody clone. […] Using these switches in combination with the three different CAR constructs (long, short and short dimeric) in cytotoxicity assays with the CLL1^+U937 cell line it was determined that N-terminal bivalent switches with the short-dimeric CAR was the most optimal for immunological synapse for the in vitro killing of U937 cells (FIG. 38D). […]

B1: anti-CLL1 switch A + B: anti-CLL1 Fab switch, N-terminal bivalent (LCNT & HCNT; SEQ ID 102 & 103) (antibody)
heavy: NYHLENEVARLKKLLVGEAAAKEAAAKADIQLQESGPGLVKPSQSLSLTCSVTGYSITSAYYWNWIRQFPGNKLEWMGYISYDGRNNYNPSLKNRISITRDTSKNQFFLKLNSVTTEDTATYYCAKEGDYDVGNYYAMDYWGQGTSVTVSSARTKGPSVFPLAPSSKSTSGGTAALGCLVKDYFPEPVTVSWNSGALTSGVHTFPAVLQSSGLYSLSSVVTVPSSSLGTQTYICNVNHKPSNTKVDKKVEPKSC
light: NYHLENEVARLKKLGGGGSENVLTQSPAIMSASPGEKVTMTCRASSNVISSYVHWYQQRSGASPKLWIYSTSNLASGVPARFSGSGSGTSYSLTISSVEAEDAATYYCQQYSGYPLTFGAGTKLELKRAAAAPSVFIFPPSDEQLKSGTASVVCLLNNFYPREAKVQWKVDNALQSGNSQESVTEQDSKDSTYSLSSTLTLSKADYEKHKVYACEVTHQGLSSPVTKSFNRGEC
modifications: peptide on N-termini; Made in lab - CLL1(1075.7)-HC_NT3 switch antibody polynucleotide; Made in lab - CLL1(1075.7)-LC_NT1 switch antibody polynucleotide
immunological synapse for in vitro killing: most optimal
